B1: NAD-dependent protein deacetylase sirtuin-3, mitochondrial (Homo sapiens), Q9NTG7 (parent)
chain: MAFWGWRAAAALRLWGRVVERVEAGGGVGPFQACGCRLVLGGRDDVSAGLRGSHGARGEPLDPARPLQRPPRPEVPRAFRRQPRAAAPSFFFSSIKGGRRSISFSVGASSVVGSGGSSDKGKLSLQDVAELIRARACQRVVVMVGAGISTPSGIPDFRSPGSGLYSNLQQYDLPYPEAIFELPFFFHNPKPFFTLAKELYPGNYKPNVTHYFLRLLHDKGLLLRLYTQNIDGLERVSGIPASKLVEAHGTFASATCTVCQRPFPGEDIRADVMADRVPRCPVCTGVVKPDIVFFGEPLPQRFLLHVVDFPMADLLLILGTSLEVEPFASLTEAVRSSVPRLLINRDLVGPLAWHPRSRDVAQLGDVVHGVESLVELLGWTEEMRDLVQRETGKLDGPDK

Variants of: B1
Details: with aldh2_human ALDH2, P05091
Sequence of aldh2_human ALDH2, P05091 (P05091 whole entry): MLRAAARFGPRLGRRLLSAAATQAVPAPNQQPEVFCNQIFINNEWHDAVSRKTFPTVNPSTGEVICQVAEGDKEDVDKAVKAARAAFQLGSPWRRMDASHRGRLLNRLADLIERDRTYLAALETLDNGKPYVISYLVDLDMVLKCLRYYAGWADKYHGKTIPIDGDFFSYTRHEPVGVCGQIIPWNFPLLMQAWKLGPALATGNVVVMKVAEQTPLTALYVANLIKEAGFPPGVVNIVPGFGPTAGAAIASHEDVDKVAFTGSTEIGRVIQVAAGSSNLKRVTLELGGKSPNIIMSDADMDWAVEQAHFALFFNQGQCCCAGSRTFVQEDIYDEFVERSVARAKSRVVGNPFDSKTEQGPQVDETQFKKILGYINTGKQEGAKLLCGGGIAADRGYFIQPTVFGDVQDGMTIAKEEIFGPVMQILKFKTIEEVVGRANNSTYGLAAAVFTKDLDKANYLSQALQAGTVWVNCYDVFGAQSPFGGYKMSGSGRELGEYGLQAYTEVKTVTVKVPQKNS

Variant	effect of a mutation on the interaction
H248Y	decreasing interaction

— IntAct's records for PubMed 21720390
